Reference: the DeepSol protein solubility set

assay: soluble on expression in E. coli; label from the status in PepcDB or PDB records

Row | Sequence | soluble on expression in E. coli
1 | MSELLQYSRIKYECTCGKFRTLPDLVFCRYCFKIKCDDCSLGEVDNIFCPRCLEPSSVPEARLKKHKCASCNDCPKCANVLSARTENDNVYLVCQYCRWSSREANQEDQENTKSWPTKENPLVNQLGEVTAYMKRLELIENAPKDLKKGKSGKAWTAFHLKDKFGFQQMVDKRKKALAPEMNPVDAHAPTEAPTLEDEIKERTDDLRTLDQIIMQPLINISEPLLPVQVPLAGRVQVRCDECERTLIKRDFGVTTFKFKISSFARQFVPDIRMSRPVDDLKVGETSHVFLSITNLSSSAMDLTIAPQSGNGFIQCSSDPIQLLLPSSRASDTAAPGVHADQSDVIVFRQHNRVGLRLDVIPTEMDLSSPCLNLLITYCQDGSFRLSSASDKILKPEETCPDPILSANLKVDLR | not soluble
2 | MRVISGSKKGRSLKAVAGTSTRPTTDKVKESIFNMIGPYFDGGRGLDLFAGSGGLGIEALSRGFEHCIFVDRDFKAIQTVKSNLKTLELTKHAQVYRNDAERALHAAAKRETGFRGIFLDPPYKEQKLKALLTLIDEYQMLEEDGFIVAEHDREVELPETVEILLEHHHHHH | soluble
3 | AAGSINTLAQAEVRSRQISVSSPGSSTDINVKKIASIGDVCESMKQQLLVLVEWAKYIPAFCELPLDDQVALLRAHAGEHLLLGATKRSMMYKDILLLGNNYVIHRNSCEVEISRVANRVLDELVRPFQEIQIDDNEYACLKAIVFFDPDAKGLSDPVKIKNMRFQVQIGLEDYINDRQYDSRGRFGELLLLLPTLQSITWQMIEQIQFVKLFGMVKIDNLLQEMLLGG | soluble
4 | MAASFVAVQGNADHGVKLKSGLTSAHRLQRRLSSDLRPLAAADLTGDSLPSEERRRTSSSTPDESLRQVMYLNCWAQG | soluble
5 | MGSDKIHHHHHHMAVKMIKVHGSGNDFYLLDQTQFQAPLSDADLKQLAINICKRDGAGLYDGADGVLVVDKSEHPQVLGRMRVINADGTEASMCGNGLRTVARYLGTQNSQEDFRVQTMYADLKVQAVADFAAHVPAYSVEISPVTFDAQTLGMHANNDATTIINEKIPALSADLKFSAVAVPNPHLIAFVDHDTLVGPELGRIGEWMNDGKNQIFPDGVNVSFVEVLGPNSIFVRTFERGVGFTNACGTAMSASSLMYVLLHQESTDFNQEIHVTNPGGMVKTVVHQGADEEYWMELIGNATFVRIVTLPLEDALQGDYSPVTATETGEQVAYEDFVANLAKA | not soluble
6 | MADDLGLDLGKKKKSKKVIKIDGDDAPVETGVEAVEDGLGELNLGAKKKKKTPKTAGEEVVEEKVPTLEIGIGAQNLIDAKGAWPDYTYEEALTLVYQVMKDKNPDFAGDKKKFAIKLPEVARAGSKKTAFSNFLEICRLMKRQDKHVLQFLLAELGTTGSIDGSNCLIVKGRWQQKQFESVLRKYIKEYVMCHTCKSPETQLTKDTRLFFLQCTNCGSRCSVTAIKSGFKAVVGKRAAIRRAEEATAGK | not soluble
7 | MSLKIYFLPMLLSLFFLGACDKNDEIIPEDADENFITSVVMTVDGKSYTADITDNTVTITVPYTVSLNNAEVEFKYTTSATIIPDPETVTDWDNERTFRVTSYNGDAREYTYKVVKSEIESDGDVELKTTEEVASFAATKTTVVKGNLIIGSDAEEAEKITDISALASLKEVTGNIVIRNSYNGADLTGLDNIVSAGGLQVGSTDVASKATELHMISMKALETLSGDISVYNDQVTYVLFEKLATIEGSVMFNASSLQSFEFPVLTTVGQDLNLQGLNEENTAAGSIASLEIPELTSVGGVLSVNNLAKLTSMSFLKLKETGGLDFHTVPVMLETINLPEIETVNGSIIMEANMEAPPTGSFVPQRNDVLQAFGGMDKLTTIKGQIKIKNFTALKQLPDWSKITTLGSITLDYLEDVSGTLLLPNARFETFGETAPQIEIINKVQLSKIETAEDLSNVNFVITSLTNNKFPEITFKNIKDFTCKPTTNNTDYTISTIQHVYGNLNVTGQMRSNAKFPDLEIIDGYGYIQIPMFASITMPVLKEVGGQFYLSGNFTSCNLPLLSKVCCSASPVYYKEGEGSLAISLQSKSLDIPELLHVGGEGLFVNKATGITCDKLQTIDGTLQIKSATSLSQETLSMEKLETLHGVVFDGLTKFTDYTFFGKFIENGMITGESWSVTKCGYNPTFQNMKDKQYTEGHHHHHH | soluble
8 | MGSDKIHHHHHHMDRRDFFKTVAITGAAMTIQRSEAMEILTQTINKANGDKPDLVAVMGGEPEAMFRRAISELGGMKQFIKPGQKVVVKPNIGWDKVPELAGNTNPKLITEIIKQCFATGAKEVTVFDHTCDDWQKCYKNSGIEAAAKEAGAKVMPAHLESYYKPVDLPKGQKMKKAKIHEAILNCDVWINVPILKNHGGANLTISMKNHMGIVWDRGFFHQNDLQQCIADICTLEKKAVLNVVDAYRIMKTNGPRGRSASDVVLAKGLFISPDIVAVDTAAAKFFNQIREMPLDTVGHLAKGEALKVGTMDIDKLNVKRIKM | not soluble
9 | MTAPLIRVSRKRTADPHDALILHTKRAKHGGNPLVFTLYKAAGNDLELNGARVLDLPTQEHGMELADEENPLGFVKDEAVGLVGEVEKNVKKPAEQVSLNGRLLQPVTDGGGAAAGSSDDVVYDYYAIHEKRGNPEVVGNLEQDIEGADFRFAKRDELDLGDEDDSDGPPADDEDDSNDEDNWRNDYPDEESYDEDSDNGDPYGISEPDHWHAGEEAYSDESFHRRLQNMDLNDERYEAFYEGDETDEDAD | soluble
10 | YCTLDDLILSFGQDEIYRLIATDQEAEKALDDAQAEIDMYLSDRYALPVKSVPKSLNRIACDIAHYYLYNSVDEDSTVYLRYKHRIKQLSDVAAGKLSLGLYDKSDDATTDNQVVFIKSSKKVFAR | not soluble
11 | AIPLTLFYKFTYPIIVAFNKSTDLVLKLFGIKQVDEHEEAHTDEEIRMLVEESYKHGLIDKTELTFVDNVFDFSEKTVKEIMVPRTDMKCIFVEDSFDDIVGVTIDEHFTRYPVCEESKDNIIGLIHIKDLYKLKINKEDEKIESIIREIKFVPESMSISELFRMFQKERMQMAIVIDEYGGTFGLVTIEDILEEIVGEIQ | not soluble
12 | MRGSHHHHHHTDPALRAKPENKLPVLDLISAEMKTVVNTLQPDLPPWPATGTIAEQRQYYTLERRFWNAGAPEMATRAYMVPTKYGQVETRLFCPQPDSPATLFYLHGGGFILGNLDTHDRIMRLLASYSQCTVIGIDYTLSPEARFPQAIEEIVAACCYFHQQAEDYQINMSRIGFAGDSAGAMLALASALWLRDKQIDCGKVAGVLLWYGLYGLRDSVTRRLLGGVWDGLTQQDLQMYEEAYLSNDADRESPYYCLFNNDLTREVPPCFIAGAEFDPLLDDSRLLYQTLAAHQQPCEFKLYPGTLHAFLHYSRMMKTADEALRDGAQFFTAQLGLCGR | soluble
13 | MYQETKQFYHLWLLAVQERDEAREHLKQSLVELSRLQECFNTILLSEDQQIPHYSYSETTDETPDHQKLYSYNNFSNESPSRFSSASSIDLVSNSTVYSSPETYDSDCYSLRTLQMGFAFEEKKDFETLVLENIGLGRMLPENGKFQQAIIEAGSLVDSLFITGPIPKWRNPPVQMLSQRPLLSHSIGKWNYGGQGIINRSFSGKMPRLSLMP | soluble
14 | MFIPKSHTKLIYEYLFNEGVTVAKKDFNAKTHPNIEGVSNLEVIKTLKSLASRELVKEQFAWRHYYWYLTDAGILYLREYLALPAEIVPATIKTKPREIRVPHEDRAPRAAQGEKGDREAYRTEKVTEAGPGGAPVYRAGFGRGAPPPQ | not soluble
15 | MSLYDPAEKYFNCTDIQRAFFEAGIKLGAIFHQYTGIPVNSENASMAEEFIERSTMIQPFVENVRISINNVKRSSGTYSYSSLNEKMLHAEVLINYNGKKVLGVLNYDEGLDYPVMYAKEVLEGHHHHHH | soluble
16 | MEKILIFGHQNPDTDTICSAIAYADLKNKLGFNAEPVRLGQVNGETQYALDYFKQESPRLVETAANEVNGVILVDHNERQQSIKDIEEVQVLEVIDHHRIANFETAEPLYYRAEPVGCTATILNKMYKENNVKIEKEIAGLMLSAIISDSLLFKSPTCTDQDVAAAKELAEIAGVDAEEYGLNMLKAGADLSKKTVEELISLDAKEFTLGSKKVEIAQVNTVDIEDVKKRQAELEAVISKVVAEKNLDLFLLVITDILENDSLALAIGNEAAKVEKAFNVTLENNTALLKGVVSRKKQVVPVLTDAMAE | soluble
17 | MQIEKIRDQKMKAVRVKKLSKLADEITINISGAKNALLHLIFASLIPDTKTKFTNVPITLLDYKGAKEILENVGAKVIEKDEEVTIDTAAISNETLELCGEMTSKTRCSLMLLGSLLKKKGRVKIGFPGGCSFSEKRPFDIHLNGLEALGAEVKLADDHIEVIYKEEKNAEFKMPFPSVGATMNLLMYAVTGNSEIVLENVALEPEVVTLIDYLNQCGANIDFDADSRKIKILGIMRLNGCEFEIIFDRIQAMTYAAMAYLYKTNVTITNINTQDTYSIKKPLEKLTNAGAKWEYNQANRSIKFFGKDSCIKGVDIIAAPFPHFPTDLQPIYAVMLFMANSSSTIQDTVYPERINYVYQIRKMGFNISIDNTLIKINPLKNLNDIRPAVMSVKDLRAGMACLMAGSLLDEFSTINNAHQIFRGYNNLIENMSHFMRIEILNDNV | not soluble
18 | GPGSMIKIHTEKDFIKMRAAGKLAAETLDFITDHVKPNVTTNSLNDLCHNFITSHNAIPAPLNYKGFPKSICTSINHVVCHGIPNDKPLKNGDIVNIDVTVILDGWYGDTSRMYYVGDVAIKPKRLIQVTYDAMMKGIEVVRPGAKLGDIGYAIQSYAEKHNYSVVRDYTGHGIGRVFHDKPSILNYGRNGTGLTLKEGMFFTVEPMINAGNYDTILSKLDGWTVTTRDKSLSAQFEHTIGVTKDGFEIFTLSPKKLDYPPY | soluble
19 | MGSDKIHHHHHHMSNTQKVPVTILTGFLGSGKTTLLNRILSEEHGKKIAVIENEYGEVGIDQGLVINADEEVFEMSNGCICCTVRGDLIRVLGNLMKRRDKFDYVLVETTGLADPGPVAQTFFMDDEIREEFSLDGIVTLVDAAHIEQQLGRSDESSEQVAFADVLVLNKTDLVSDESLDNLESRLRDMNRMARVIRSKQADVSIDTVLNLSAFDLDQVLQRRPTFLEPEYPFEWTGVFSLEKGRYELTLEEGPDPTMSLVQLLDQGKDETALNTGAESCVRLYAEQEQLMNPGDLVPVGKHVNLQLQSEGTKSFFIDVDKARDIGLFTQHTAEEFNMKLTKVNTPSTDEIDNDQNISTISPIAERVWVAEHEHDDEVGSFAIEREGDVDPEKLNRWLSRLLSEKGVDIFRTKGFISYAGESKRIVFQGVHMLFTAQPDKEWGNEPRRNQLVFIGRNLDEAEMIKEFDKCLV | not soluble
20 | MEHICGTSRIAGFRFSLYPMTDDFISVIKSALKKTDTSKVWTKTDHISTVLRGSIDHVFDAAKAIYLHAANSEQHIVMNGTFSIGCPGDTQGDTYLSKGDKRVNEDAVRGLKAEAPCQFALYPMNEPDYMGLIMEAVDIAKAQGTFVQGVHYASELDGDAHDVFSTLEAVFRMAEQQTNHITMTVNLSANSPSRKNRKQG | soluble
21 | GPGSMSNSGCGLPGDVDPDLPLTPDGVTYHVACSSERLADRIILVGDPDRVKMVSTYLDAGSIVYEASHREIKVVTGAYHGVPVTVLSTGMGTDNVEIVMNEVHILKEYDTQKRRWRARVGDDTPADPLETPFDPSRVKLIRVGTCGTPNDAVQIGCLAITRYAVGMDNTCQYYDAPAVNHTVDVKEVLAKVQATSLGKVQVYATKAAPAITQGLVDACTALNRKVGVSEQQPYYVGTTCSGSGFYGCQGRSVGRFRGHLTVPHLTEELGDLRFNVSEGEQRVANIEMENSALCYLSNLLGYQAGTVCVVIARRSRTNRAFATPEQLAKGLSHAITIALETLIKE | not soluble
